From patent US7056679B2, “Target specific screening and its use for identifying target binders” (Antyra, Inc., priority 2001, dated 2006)

Columns and labels:
DGI-2 = target: T1, DGI-2 (Homo sapiens, UniProt Q15004); test: ELISA analysis of phage on DGI-2 polypeptide (specific binding); details: for DGI-2 (OD): binding to DGI-2 polypeptide (specific binding), phage ELISA units read at 405 nm; for DGI-2/LDH (OD): ratio of specific binding to non-specific binding
T1 construct: encompassed the entire DGI-2 open reading frame (ORF); His-tag of vector pIVEX2.3-MCS (inferred from the vector and from the reverse primer lacking a stop codon); made in house; host or cells: cell-free in vitro translation (Rapid Translation System RTS, Roche; E. coli lysate)
T1 sequence (Q15004 1-111): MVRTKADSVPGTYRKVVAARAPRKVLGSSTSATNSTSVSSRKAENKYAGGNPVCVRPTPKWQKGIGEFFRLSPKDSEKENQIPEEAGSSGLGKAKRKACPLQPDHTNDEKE
Summary of the method: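 Recombinant DGI-2 from in vitro translation, LDH (non-specific) and controls were coated at 500 ng/well and blocked with 2% milk-PBS. Phage from individual clones bound for 2 hr at room temperature, then anti-M13-HRP with ABTS was read at 405 nm; a clone counted as positive at ≥2-fold over background.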

[1] = system: lactate dehydrogenase (LDH); test: ELISA analysis of phage on LDH (irrelevant, non-specific target); type: binding; details: peptide binding to LDH polypeptide (non-specific binding); phage ELISA units read at 405 nm
Summary of the method: (§1)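 Phage from picked clones (M13KO7 helper) bound 2 hr at room temperature to wells coated overnight at 4 °C with 500 ng/well anti-ETAG antibody or LDH, milk-blocked. Detection with HRP-anti-M13 (1:3000) and ABTS at 405 nm; positive when A405 ≥2-fold over background.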

E-tag antibody = test: ELISA analysis of phage on antibody raised against ETAG (positive control); details: peptide binding to E-tag antibody; phage ELISA units read at 405 nm
Summary of the method: as §1

Substance | DGI-2 (OD) (DGI-2) | DGI-2/LDH (OD) (DGI-2) | LDH (OD) [1] | ETAG (OD) (E-tag antibody)
QLDCLVWGLPGLRCDRPLEQ (DGI-2-20R-3-B10; listed as Escherichia coli) | 7.8 OD | 7.6 | 1.0 OD | 17.0 OD
QMIFSKGNWLAHPEGGVALGLSRESQLFRSCREFGYCMGPM [DGI-2-40F-3-C6] | 2.3 OD | 2.8 | 0.8 OD | 10.1 OD
QMSRVAFSPGESWRRWVEGV (DGI-2-20R-3-A2; listed as Escherichia coli) | 7.5 OD | 7.5 | 1.0 OD | 14.2 OD
QSNVWVLVGVIMQGVWYQRQHYCVYVMLLSDQVSVLLAVA (DGI-2-40F-3-B6; listed as Escherichia coli) | 0.9 OD | 1.2 | 0.8 OD | 1.8 OD
QVGGMTQVGATVLSVVTGRGSCDGEDAWYPPGVTVGLGLC (DGI-2-40F-4-F97; listed as Escherichia coli) | 6.7 OD | 6.4 | 1.0 OD | 14.0 OD
RCFQDGRMLALSPTYLIRRSVSPLVVGPLPTP (DGI-2-40F-3-A24; listed as Escherichia coli) | 1.3 OD | 1.4 | 0.9 OD | 11.7 OD
RDHRYVGWGRATFRHDQSVW (DGI-2-20F-PP-H1; listed as Escherichia coli) | 1.7 OD | 1.4 | 1.2 OD | 1.4 OD
RDTMCGSVSWGIPGCEYSGM (DGI-2-20R-4-G122; listed as Escherichia coli) | 7.6 OD | 7.1 | 1.1 OD | 13.9 OD
RDTTSQWSWISRGWEFPGWR (DGI-2-20R-3-C2; listed as Escherichia coli) | 6.2 OD | 5.8 | 1.1 OD | 11.9 OD
RERWGTAWNLWTEGVVDVRP (DGI-2-20F-3-B5; listed as Escherichia coli) | 6.1 OD | 6.6 | 0.9 OD | 16.4 OD
RFWSVSYQGGRVMCREWGYCLPI (DGI-2-40F-3-C92; listed as Escherichia coli) | 2.1 OD | 2.6 | 0.8 OD | 9.8 OD
RGSLLLTLPRLSGAVGTAYG (DGI-2-20F-PP-B3; listed as Escherichia coli) | 3.4 OD | 3.0 | 1.1 OD | 11.7 OD
RGVNSDMPRLYICRADGQGQ (DGI-2-20F-PP-H6; listed as Escherichia coli) | 1.6 OD | 1.9 | 0.8 OD | 18.9 OD
RISVGQCGTSRCGGGRRGGG (DGI-2-20F-PP-D1; listed as Escherichia coli) | 2.0 OD | 1.9 | 1.1 OD | 3.0 OD
RKGWGVFCIPGLRFCDWSDP (DGI-2-20R-3-B4; listed as Escherichia coli) | 8.4 OD | 8.6 | 1.0 OD | 17.4 OD
RMYNCHYIERLYDWHAGRJLLQDPA (RMYNCHYIERLYDWHAGRILLQDPA; not fully specified; non-natural residue J; DGI-2-20C-4-E926; listed as Escherichia coli) | 2.9 OD | 3.0 | 1.0 OD | 17.4 OD
RNWLDKDCVWMGDCGARAGE (DGI-2-20F-4-E3; listed as Escherichia coli) | 3.8 OD | 4.1 | 0.9 OD | 16.9 OD
RPVVCLAGLTLAQFGWVFPGWRGWS (DGI-2-20C-3-C1039; listed as Escherichia coli) | 4.7 OD | 4.7 | 1.0 OD | 11.8 OD
RQRSGGRWVVDRVTRVASTSP (DGI-2-20F-PP-B12; listed as Escherichia coli) | 2.3 OD | 2.2 | 1.1 OD | 1.9 OD
RRFVRCSVPVALRSAVPVSV (DGI-2-20F-PP-A10; listed as Escherichia coli) | 2.4 OD | 2.4 | 1.0 OD | 16.3 OD

Substance | DGI-2 (OD) (DGI-2) | DGI-2/LDH (OD) (DGI-2) | LDH (OD) [1] | ETAG (OD) (E-tag antibody)
RRGVCEIFTGWCVGQTNERP (DGI-2-20R-4-H626; listed as Escherichia coli) | 9.6 OD | 8.8 | 1.1 OD | 13.5 OD
RRILPWSFPGCGRMC (DGI-2-20R-3-A10; listed as Escherichia coli) [DGJ-2-20R-3-A10] | 6.2 OD | 5.9 | 1.1 OD | 16.4 OD
RRTQPAYRSGADDRTSGFYCYVTSALSAGAWMPFLPRRLA (DGI-2-40F-3-A12; listed as Escherichia coli) | 0.9 OD | 1.1 | 0.8 OD | 4.6 OD
RRTSADTDQLSRWEGAQAFSSLRSALSERLDSLRPGLPPS (DGI-2-40F-3-D9; listed as Escherichia coli) | 1.1 OD | 1.4 | 0.8 OD | 15.8 OD
RSIRLQLIDEACQFFDGLCT (DGI-2-20R-3-A8; listed as Escherichia coli) | 6.9 OD | 6.4 | 1.1 OD | 15.3 OD
RSQVRVVSRERSTPVLIHIRIECLLFSGWCVTSGSDEGVVWG [DGI-2-40F-4-F122] | 4.7 OD | 5.7 | 0.8 OD | 8.1 OD
RSRSSSGASGSMLRVQNHMVLGSWMVRQPMGSMTPFHGHG (DGI-2-40F-3-B5; listed as Escherichia coli) | 1.0 OD | 1.2 | 0.9 OD | 9.2 OD
RSYPRLCKQKGGVIGRMLPG (DGI-2-20F-PP-B2; listed as Escherichia coli) | 3.3 OD | 2.9 | 1.1 OD | 35.9 OD
RTLFINGGCCGKGSGGGRPL (DGI-2-20F-PP-G1; listed as Escherichia coli) | 1.4 OD | 1.4 | 1.0 OD | 21.8 OD
RVSYEMLGRRRRSMHGSSMR (DGI-2-20F-PP-A4; listed as Escherichia coli) | 2.7 OD | 2.6 | 1.1 OD | 6.6 OD
RWSICRGLQYSIPGCAVEDLSDVMA (DGI-2-20C-4-H316; listed as Escherichia coli) | 3.8 OD | 3.9 | 1.0 OD | 7.2 OD
RWSLPAYLCRFVSQASCNSR (DGI-2-20R-3-C12; listed as Escherichia coli) | 1.6 OD | 1.6 | 1.0 OD | 14.6 OD
S#ARSLMTGVVAVCIVWRGP (SARSLMTGVVAVCIVWRGP; DGI-2-20F-PP-E8; listed as Escherichia coli) | 2.5 OD | 2.6 | 1.0 OD | 36.3 OD
SAFGCPLPRALGGGGARFYA (DGI-2-20F-PP-E11; listed as Escherichia coli) | 2.0 OD | 2.2 | 0.9 OD | 15.2 OD
SIILAGCVWVMPCGQNLGGV (DGI-2-20F-PP-C4; listed as Escherichia coli) | 3.0 OD | 3.2 | 0.9 OD | 36.1 OD
SIVSSRSGWQRGWIAWEAPV (SIVSSRSGWQRGWIAWFAPV; DGI-2-20F-PP-E5; listed as Escherichia coli) | 2.7 OD | 2.7 | 1.0 OD | 30.4 OD
SLECWAMPGMVVRLVGCDGP (DGI-2-20R-4-H112; listed as Escherichia coli) | 6.6 OD | 6.0 | 1.1 OD | 12.3 OD
SLFERSARSRYHGSPDCNGS (DGI-2-20F-PP-A3; listed as Escherichia coli) | 2.8 OD | 2.4 | 1.2 OD | 12.9 OD
SLLCVVCRPVSGGRALGGVP (DGI-2-20F-PP-B42; listed as Escherichia coli) | 2.4 OD | 2.5 | 1.0 OD | 21.5 OD
